B1: recombinant human MBL-Associated Serine Protease-3 (rMASP-3) (protein)
chain: HTVELNNMFGQIQSPGYPDSYPSDSEVTWNITVPDGFRIKLYFMHFNLESSYLCEYDYVKVETEDQVLATFCGRETTDTEQTPGQEVVLSPGSFMSITFRSDFSNEERFTGFDAHYMAVDVDECKEREDEELSCDHYCHNYIGGYYCSCRFGYILHTDNRTCRVECSDNLFTQRTGVITSPDFPNPYPKSSECLYTIELEEGFMVNLQFEDIFDIEDHPEVPCPYDYIKIKVGPKVLGPFCGEKAPEPISTQSHSVLILFHSDNSGENRGWRLSYRAAGNECPELQPPVHGKIEPSQAKYFFKDQVLVSCDTGYKVLKDNVEMDTFQIECLKDGTWSNKIPTCKIVDCRAPGELEHGLITFSTRNNLTTYKSEIKYSCQEPYYKMLNNNTGIYTCSAQGVWMNKVLGRSLPTCLPECGQPSRSLPSLVKRIIGGRNAEPGLFPWQALIVVEDTSRVPNDKWFGSGALLSASWILTAAHVLRSQRRDTTVIPVSKEHVTVYLGLHDVRDKSGAVNSSAARVVLHPDFNIQNYNHDIALVQLQEPVPLGPHVMPVCLPRLEPEGPAPHMLGLVAGWGISNPNVTVDEIISSGTRTLSDVLQYVKLPVVPHAECKTSYESRSGNYSVTENMFCAGYYEGGKDTCLGDSGGAFVIFDDLSQRWVVQGLVSWGGPEECGSKQVYGVYTKVSNYVDWVWEQMGLPQSVVEPQVER
B2: recombinant human MBL-Associated Serine Protease-2 (rMASP-2) (protein)
chain: TPLGPKWPEPVFGRLASPGFPGEYANDQERRWTLTAPPGYRLRLYFTHFDLELSHLCEYDFVKLSSGAKVLATLCGQESTDTERAPGKDTFYSLGSSLDITFRSDYSNEKPFTGFEAFYAAEDIDECQVAPGEAPTCDHHCHNHLGGFYCSCRAGYVLHRNKRTCSALCSGQVFTQRSGELSSPEYPRPYPKLSSCTYSISLEEGFSVILDFVESFDVETHPETLCPYDFLKIQTDREEHGPFCGKTLPHRIETKSNTVTITFVTDESGDHTGWKIHYTSTAQPCPYPMAPPNGHVSPVQAKYILKDSFSIFCETGYELLQGHLPLKSFTAVCQKDGSWDRPMPACSIVDCGPPDDLPSGRVEYITGPGVTTYKAVIQYSCEETFYTMKVNDGKYVCEADGFWTSSKGEKSLPVCEPVCGLSARTTGGRIYGGQKAKPGDFPWQVLILGGTTAAGALLYDNWVLTAAHAVYEQKHDASALDIRMGTLKRLSPHYTQAWSEAVFIHEGYTHDAGFDNDIALIKLNNKVVINSNITPICLPRKEAESFMRTDDIGTASGWGLTQRGFLARNLMYVDIPIVDHQKCTAAYEKPPYPRGSVTANMLCAGLESGGKDSCRGDSGGALVFLDSETERWFVGGIVSWGSMNCGEAGQYGVYTKVINYIPWIENIISDF
B3: recombinant human MBL-Associated Serine Protease-1 (rMASP-1) (protein)
chain: HTVELNNMFGQIQSPGYPDSYPSDSEVTWNITVPDGFRIKLYFMHFNLESSYLCEYDYVKVETEDQVLATFCGRETTDTEQTPGQEVVLSPGSFMSITFRSDFSNEERFTGFDAHYMAVDVDECKEREDEELSCDHYCHNYIGGYYCSCRFGYILHTDNRTCRVECSDNLFTQRTGVITSPDFPNPYPKSSECLYTIELEEGFMVNLQFEDIFDIEDHPEVPCPYDYIKIKVGPKVLGPFCGEKAPEPISTQSHSVLILFHSDNSGENRGWRLSYRAAGNECPELQPPVHGKIEPSQAKYFFKDQVLVSCDTGYKVLKDNVEMDTFQIECLKDGTWSNKIPTCKIVDCRAPGELEHGLITFSTRNNLTTYKSEIKYSCQEPYYKMLNNNTGIYTCSAQGVWMNKVLGRSLPTCLPVCGLPKFSRKLMARIFNGRPAQKGTTPWIAMLSHLNGQPFCGGSLLGSSWIVTAAHCLHQSLDPEDPTLRDSDLLSPSDFKIILGKHWRLRSDENEQHLGVKHTTLHPQYDPNTFENDVALVELLESPVLNAFVMPICLPEGPQQEGAMVIVSGWGKQFLQRFPETLMEIEIPIVDHSTCQKAYAPLKKKVTRDMICAGEKEGGKDACAGDSGGPMVTLNRERGQWYLVGTVSWGDDCGKKDRYGVYSYIHHNKDWIQRVTGVRN

Legend:
[1] = molecular target: recombinant, full-length, non-tagged mannose-binding lectin (rMBL), P11226
[2] = molecular target: recombinant human Ficolin-3 (rFicolin-3), O75636
Chain of recombinant human Ficolin-3 (rFicolin-3), O75636 (O75636 24-299): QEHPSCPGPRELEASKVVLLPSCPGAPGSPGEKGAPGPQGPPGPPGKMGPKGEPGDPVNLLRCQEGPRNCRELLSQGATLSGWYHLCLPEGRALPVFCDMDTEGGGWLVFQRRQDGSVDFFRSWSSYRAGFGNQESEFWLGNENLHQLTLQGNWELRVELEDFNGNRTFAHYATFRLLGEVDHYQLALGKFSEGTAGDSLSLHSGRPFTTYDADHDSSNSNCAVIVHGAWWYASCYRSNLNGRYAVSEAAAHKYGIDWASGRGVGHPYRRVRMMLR

Chain of recombinant, full-length, non-tagged mannose-binding lectin (rMBL), P11226 (P11226 21-248): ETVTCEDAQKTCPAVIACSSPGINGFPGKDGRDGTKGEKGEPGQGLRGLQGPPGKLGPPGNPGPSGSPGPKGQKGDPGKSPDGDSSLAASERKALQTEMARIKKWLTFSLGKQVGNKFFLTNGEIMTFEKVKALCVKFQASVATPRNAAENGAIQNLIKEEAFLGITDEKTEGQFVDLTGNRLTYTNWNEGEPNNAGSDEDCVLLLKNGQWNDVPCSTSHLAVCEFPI

Protein	activation of C3 and C4 [1]	C4 deposition (mannan/rMBL, MBL deficient serum) [1]	C4 deposition (AcBSA/rFicolin-3, Ficolin-3 deficient serum) [2]
B1	MASP-3 were able to inhibit the activation of both the C3 and C4 complement proteins		
B2	MASP-2 were able to strongly activate both the C3 and C4 complement proteins	Application of rMASP-2 resulted in a strong positive dose dependent enhancement of the C4 deposition via both the Ficolin-3 and MBL activation pathways	Application of rMASP-2 resulted in a strong positive dose dependent enhancement of the C4 deposition via both the Ficolin-3 and MBL activation pathways
B3	MASP-1 were able to activate both the C3 and C4 complement proteins		

— US20130217616
